{"source": "paper PMC4893650", "about": "(Theranostics, 2016)", "binders": {"B1": {"name": "peptide P51 (peptide)", "peptide": "CDTFPYLGWWNPNEYRY"}}, "molecular_target": "purified HER2 protein (human epidermal growth factor receptor-2) (human, UniProt P04626 23-652)", "test": "SPR"}
{"binder": "B1", "values": [{"measurement": "Kd", "result": 18.6, "unit": "nM"}]}
